Data reported in patent publication US20210261665A1 (TAYU HUAXIA BIOTECH MEDICAL GROUP, published 2021).
Each block holds one binder with its values, some of them ahead of it.

Assays:
hPD-1 mIg fusion protein = molecular target: T1, hPD-1 mIg fusion protein (human; mouse, UniProt Q15116 25-170); assay: SPR Biacore T100, hPD-1mIg immobilised by amine coupling, antibody as analyte
T1 construct: extracellular domain; not shown: CH2-CH3 domain of mouse IgG2a heavy chain (plasmid pmIgG)
Procedure: Binding affinity and kinetics determination of the humanized antibodies: The binding affinity and kinetics of the humanized PD-1 mAbs interact with hPD-1 protein was assessed with Biacore T100 (GE Healthcare Life Sciences). […] Nine different concentrations were tested for each sample. Detailed binding kinetic parameters (association rate, Ka, dissociation rate, Kd, and affinity constant, KD) can be determined by full kinetic analysis.

human PD-1 on cells [1] = molecular target: T2, human PD-1 on cells (human, UniProt Q15116 25-288); assay: cell based RBA (flow cytometry): blocking of Biotin-hPD-L2 binding to CHOK1-hPD-1 cells
T2 construct: whole, on cells; also called hPD-1; CHO/hPD-1
T2 sequence (Q15116 25-288): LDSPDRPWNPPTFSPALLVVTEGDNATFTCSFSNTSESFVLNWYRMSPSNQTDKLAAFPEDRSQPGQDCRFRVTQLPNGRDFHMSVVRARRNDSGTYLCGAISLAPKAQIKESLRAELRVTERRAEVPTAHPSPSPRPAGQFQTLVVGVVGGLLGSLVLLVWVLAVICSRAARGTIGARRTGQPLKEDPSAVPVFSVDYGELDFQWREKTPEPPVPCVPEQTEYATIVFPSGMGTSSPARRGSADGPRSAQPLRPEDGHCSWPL
Procedure: (§1) The cells were then incubated with Alexa 488 labeled Streptavidin and analyzed using a FACSCanto II.

human PD-1 on cells [2] = molecular target: T2, human PD-1 on cells; assay: flow cytometry on CHOK1-hPD-1 cells
[3] = molecular target: T3, mPD-1 protein (ELISA coat) (mouse, UniProt Q02242 25-167, limits assumed); assay: ELISA against mPD-1 ECD-Fc protein (plate coat)
T3 sequence (looked up): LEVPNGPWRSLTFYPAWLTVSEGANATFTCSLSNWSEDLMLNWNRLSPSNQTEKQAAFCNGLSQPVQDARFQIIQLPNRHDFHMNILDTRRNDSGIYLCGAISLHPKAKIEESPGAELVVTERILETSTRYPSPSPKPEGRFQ
Procedure: (§2) The bindings of the antibodies to hPD-1 and the cross-reactivity to mPD-1 proteins were tested by ELISA. A serial dilution of test antibodies were added to ELISA plates pre-coated with 1 μg/ml hPD-1 or mPD-1. HRP conjugated goat anti-human IgG or goat anti-mouse IgG antibody was then added, followed by the addition of substrate Tetramethylbenzidine (TMB) and quantification with a SpectraMax Plus 384 Microplate Reader (Molecular Device, LLC., Sunnyvale, Calif.) at 450 nm wavelength.

Biotin-hPD-1 [4] = molecular target: T4, Biotin-hPD-1 (human, UniProt Q15116 25-167, limits assumed, biotin label, site not stated); assay: competitive ELISA: competitive Ab 15 µg/ml with Biotin-hPD-1; coating Ab Nivolumab 1 µg/ml
T4 sequence (Q15116 25-167 limits assumed): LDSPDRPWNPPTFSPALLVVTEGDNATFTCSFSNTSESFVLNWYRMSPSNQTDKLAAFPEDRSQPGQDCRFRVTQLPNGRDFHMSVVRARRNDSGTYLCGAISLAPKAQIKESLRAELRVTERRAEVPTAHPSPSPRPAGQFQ
Procedure: (§3) A serial dilution of competing antibodies and Biotin-hPD-1 were added to ELISA plates pre-coated with 1 μg/ml a test antibody. HRP conjugated streptavidin was then added, followed by the addition of substrate TMB and quantification with a SpectraMax Plus 384 Microplate Reader at 450 nm wavelength.

Biotin-hPD-1 [5] = molecular target: T4, Biotin-hPD-1; assay: competitive ELISA: competitive Ab 15 µg/ml with Biotin-hPD-1; coating Ab TY101-04-T3-05 1 µg/ml
Procedure: as §3

[6] = molecular target: T5, cynomolgus monkey PD-1 on cells (cynomolgus monkey, UniProt B0LAJ3 25-288); assay: flow cytometry on CHOK1-cPD-1 cells
T5 construct: also called cPD-1; CHOK1-cPD-1
T5 sequence (B0LAJ3 entry or part of it limits assumed): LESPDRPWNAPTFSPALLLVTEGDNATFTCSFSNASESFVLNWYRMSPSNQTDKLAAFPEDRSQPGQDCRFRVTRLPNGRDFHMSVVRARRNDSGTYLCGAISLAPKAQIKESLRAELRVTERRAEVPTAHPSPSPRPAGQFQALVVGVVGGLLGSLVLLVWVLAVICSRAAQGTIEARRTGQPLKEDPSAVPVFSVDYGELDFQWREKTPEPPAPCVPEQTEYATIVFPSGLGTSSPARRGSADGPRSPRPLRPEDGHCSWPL

Biotin-hPD-1 [7] = molecular target: T4, Biotin-hPD-1; assay: competitive ELISA: competitive Ab 15 µg/ml with Biotin-hPD-1; coating Ab Pembrolizumab 1 µg/ml
Procedure: as §3

human PD-1 on cells [8] = molecular target: T2, human PD-1 on cells; assay: cell based RBA (flow cytometry): blocking of Biotin-hPD-L1 binding to CHOK1-hPD-1 cells
Procedure: as §1

Biotin-hPD-1 [9] = molecular target: T4, Biotin-hPD-1; assay: competitive ELISA: competitive Ab 15 µg/ml with Biotin-hPD-1; coating Ab TY101-01-09 1 µg/ml
Procedure: as §3

Biotin-hPD-1 [10] = molecular target: T4, Biotin-hPD-1; assay: competitive ELISA: competitive Ab 15 µg/ml with Biotin-hPD-1; coating Ab TY101-4G1 1 µg/ml
Procedure: as §3

[11] = molecular target: hPD-1 protein (ELISA coat) (human, UniProt Q15116 25-167, limits assumed); assay: ELISA against hPD-1 ECD-Fc protein (plate coat)
Sequence of hPD-1 protein (ELISA coat) (Q15116 25-167 limits assumed): as the sequence (Q15116 25-167 limits assumed) above
Procedure: as §2

T1 sequence (Q15116 25-170): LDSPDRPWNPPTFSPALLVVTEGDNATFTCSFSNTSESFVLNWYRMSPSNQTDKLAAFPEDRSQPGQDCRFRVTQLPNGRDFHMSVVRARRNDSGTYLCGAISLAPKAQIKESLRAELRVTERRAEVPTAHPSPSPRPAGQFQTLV

- Kd (hPD-1 mIg fusion protein): 0.363 nM
- koff (hPD-1 mIg fusion protein): 7.64e-05 s⁻¹
- kon (hPD-1 mIg fusion protein): 210000 M⁻¹ s⁻¹
B1: Variant 2 (antibody, V domains shown)
VH: EVQLVESGGGLVQPGGSLRLSCAASGFTFSSYTMSWVRQAPGKGLEWVSYISHGGGDTYYADSVKGRFTISRDNSKNTLYLQMNSLRAEDTAVYYCARHSGYERGYYYVMDYWGQGTLVTVSS
VL: DIVMTQSPDSLAVSLGERATINCKASESVDYYGFSFLNWFQQKPGQPPKLLIYAASNRESGVPDRFSGSGSGTDFTLTISSLQAEDVAVYYCQQSKEVPWTFGQGTKLEIKR
notes: Humanized; VH variant a, VK variant b; Constant regions not spelled out; chimeric parent has human IgG4-S228P and human kappa; also called mutant combination 2

- Kd (hPD-1 mIg fusion protein): 0.358 nM
- koff (hPD-1 mIg fusion protein): 7.95e-05 s⁻¹
- kon (hPD-1 mIg fusion protein): 222000 M⁻¹ s⁻¹
B2: Variant 8 (antibody, V domains shown)
VH: EVKLLESGGGLVQPGGSLRLSCAASGFTFSSYTMSWVRQAPGKGLEWVSYISHGGGDTYYPDSVKGRFTISRDNSKNTLYLQMNSLRAEDTAVYYCARHSGYERGYYYVMDYWGKGTTVTVSS
VL: DIVMTQSPDSLAVSLGERATINCKASESVDYYGFSFLNWFQQKPGQPPKLLIYAASNRESGVPDRFSGSGSGTDFTLTISSLQAEDVAVYYCQQSKEVPWTFGQGTKLEIK
notes: Humanized; VH variant c, VK variant b; Constant regions not spelled out; also called mutant combination 8

- Kd (hPD-1 mIg fusion protein): 0.329 nM
- koff (hPD-1 mIg fusion protein): 6.94e-05 s⁻¹
- kon (hPD-1 mIg fusion protein): 211000 M⁻¹ s⁻¹
B3: Variant 5 (antibody, V domains shown)
VH: EVQLVESGGGLVQPGGSLRLSCAASGFTFSSYTMSWVRQAPGKGLEWVSYISHGGGDTYYPDSVKGRFTISRDNSKNTLYLQMNSLRAEDTAVYYCARHSGYERGYYYVMDYWGQGTLVTVSS
VL: DIVMTQSPDSLAVSLGERATINCKASESVDYYGFSFLNWFQQKPGQPPKLLIYAASNRESGVPDRFSGSGSGTDFTLTISSLQAEDVAVYYCQQSKEVPWTFGQGTKLEIKR
notes: Humanized; VH variant b, VK variant b; Constant regions not spelled out; chimeric parent has human IgG4-S228P and human kappa; also called mutant combination 5

- IC50 (human PD-1 on cells [1]): 1.76 nM
- Inhibition rate (human PD-1 on cells [1]): 95.4%
- EC50 (human PD-1 on cells [2]): 0.78 nM
- Max MFI (human PD-1 on cells [2]): 23200
- Max OD450 [3]: 0.71
- binding result [3]: no binding (tested: 100 nM)
- Inhibition (%) (Biotin-hPD-1 [4]): 93%
- Inhibition (%) (Biotin-hPD-1 [5]): 94%
- EC50 [6]: 1.13 nM
- Max MFI [6]: 21100
- Inhibition (%) (Biotin-hPD-1 [7]): 93%
- IC50 (human PD-1 on cells [8]): 1.15 nM
- Inhibition rate (human PD-1 on cells [8]): 99.5%
- Inhibition (%) (Biotin-hPD-1 [9]): 94%
- Inhibition (%) (Biotin-hPD-1 [10]): 95%
- EC50 [11]: 0.13 nM
- Max OD450 [11]: 3.01
B4: TY101-01-09 (antibody, V domains shown)
VH: EVQLVESGGGLVQPGGSLRLSCAASGFTFSSYTMSWVRQAPGKGLEWVSYISHGGGDTYYADSVKGRFTISRDNSKNTLYLQMNSLRAEDTAVYYCARHSGYERGYYYVMDYWGQGTLVTVSS
VL: DIQLTQSPDSLSVSLGERATINCKASESVDYYGFSFLNWFQQKPGQPPKLLIYAASNRQSGVPDRFSGSGSGTDFTLTISSLQAEDVAVYFCQQSKEVPWTFGQGTKLEIKR
notes: Compared with isotype control hIgG4; also called TY101 clone TY101-01-09

- IC50 (human PD-1 on cells [1]): 2.33 nM
- Inhibition rate (human PD-1 on cells [1]): 94.7%
- EC50 (human PD-1 on cells [2]): 0.94 nM
- Max MFI (human PD-1 on cells [2]): 23700
- Max OD450 [3]: 1.33
- binding result [3]: no binding (tested: 100 nM)
- Inhibition (%) (Biotin-hPD-1 [4]): 94%
- Inhibition (%) (Biotin-hPD-1 [5]): 94%
- EC50 [6]: 1.46 nM
- Max MFI [6]: 20700
- Inhibition (%) (Biotin-hPD-1 [7]): 94%
- IC50 (human PD-1 on cells [8]): 1.47 nM
- Inhibition rate (human PD-1 on cells [8]): 99.5%
- Inhibition (%) (Biotin-hPD-1 [9]): 94%
- Inhibition (%) (Biotin-hPD-1 [10]): 95%
- EC50 [11]: 0.15 nM
- Max OD450 [11]: 3.01
B5: TY101-4G1 (antibody, V domains shown)
VH: EVQLVESGGGLVQPGGSLRLSCAASGFTFSSYTMSWVRQAPGKGLEWVSYISHGGGDTYYADSVKGRFTISRDNSKNTLYLQMNSLRAEDTAVYYCARHSGYERGYYYVMDYWGQGTLVTVSS
VL: DIQLTQSPDSLSVSLGERATINCKASESVDYYGFSFLNWFQQKPGQPPKLLIYAASNRQSGVPDRFSGSGSGTDFTLTISSLQAEDVAVYFCQQSKEVPWTFGQGTKLEIKR
notes: also called TY101 clone TY101-4G1

- Kd (hPD-1 mIg fusion protein): 0.293 nM
- koff (hPD-1 mIg fusion protein): 6.15e-05 s⁻¹
- kon (hPD-1 mIg fusion protein): 210000 M⁻¹ s⁻¹
B6: Variant 1 (antibody, V domains shown)
VH: EVQLVESGGGLVQPGGSLRLSCAASGFTFSSYTMSWVRQAPGKGLEWVSYISHGGGDTYYADSVKGRFTISRDNSKNTLYLQMNSLRAEDTAVYYCARHSGYERGYYYVMDYWGQGTLVTVSS
VL: DIVMTQSPDSLAVSLGERATINCKSSESVDYYGFSFLNWFQQKPGQPPKLLIYAASNRESGVPDRFSGSGSGTDFTLTISSLQAEDVAVYYCQQSKEVPWTFGQGTKLEIKR
notes: Humanized; Constant regions not spelled out for the humanized antibodies; the chimeric parent has human IgG4-S228P and human kappa; also called mutant combination 1

- Kd (hPD-1 mIg fusion protein): 0.338 nM
- koff (hPD-1 mIg fusion protein): 6.29e-05 s⁻¹
- kon (hPD-1 mIg fusion protein): ~186000 M⁻¹ s⁻¹
B7: Variant 4 (antibody, V domains shown)
VH: EVQLVESGGGLVQPGGSLRLSCAASGFTFSSYTMSWVRQAPGKGLEWVSYISHGGGDTYYPDSVKGRFTISRDNSKNTLYLQMNSLRAEDTAVYYCARHSGYERGYYYVMDYWGQGTLVTVSS
VL: DIVMTQSPDSLAVSLGERATINCKSSESVDYYGFSFLNWFQQKPGQPPKLLIYAASNRESGVPDRFSGSGSGTDFTLTISSLQAEDVAVYYCQQSKEVPWTFGQGTKLEIKR
notes: Humanized; VH variant b, VK variant a; Constant regions not spelled out; chimeric parent has human IgG4-S228P and human kappa; also called mutant combination 4

- Kd (hPD-1 mIg fusion protein): 0.0898 nM
- koff (hPD-1 mIg fusion protein): 2.23e-05 s⁻¹
- kon (hPD-1 mIg fusion protein): 248000 M⁻¹ s⁻¹
B8: Variant 6 (antibody, V domains shown)
VH: EVQLVESGGGLVQPGGSLRLSCAASGFTFSSYTMSWVRQAPGKGLEWVSYISHGGGDTYYPDSVKGRFTISRDNSKNTLYLQMNSLRAEDTAVYYCARHSGYERGYYYVMDYWGQGTLVTVSS
VL: DIQLTQSPDSLSVSLGERATINCKASESVDYYGFSFLNWFQQKPGQPPKLLIYAASNRQSGVPDRFSGSGSGTDFTLTISSLQAEDVAVYFCQQSKEVPWTFGQGTKLEIKR
notes: Humanized; VH variant b, VK variant c; Constant regions not spelled out; chimeric parent has human IgG4-S228P and human kappa; also called mutant combination 6

- Kd (hPD-1 mIg fusion protein): 0.291 nM
- koff (hPD-1 mIg fusion protein): 6.48e-05 s⁻¹
- kon (hPD-1 mIg fusion protein): 218000 M⁻¹ s⁻¹
B9: Variant 7 (antibody, V domains shown)
VH: EVKLLESGGGLVQPGGSLRLSCAASGFTFSSYTMSWVRQAPGKGLEWVSYISHGGGDTYYPDSVKGRFTISRDNSKNTLYLQMNSLRAEDTAVYYCARHSGYERGYYYVMDYWGKGTTVTVSS
VL: DIVMTQSPDSLAVSLGERATINCKSSESVDYYGFSFLNWFQQKPGQPPKLLIYAASNRESGVPDRFSGSGSGTDFTLTISSLQAEDVAVYYCQQSKEVPWTFGQGTKLEIK
notes: Humanized; VH variant c, VK variant a; Constant regions not spelled out; also called mutant combination 7

- Kd (hPD-1 mIg fusion protein): 0.123 nM
- koff (hPD-1 mIg fusion protein): 3.2e-05 s⁻¹
- kon (hPD-1 mIg fusion protein): 259000 M⁻¹ s⁻¹
B10: Variant 9 (antibody, V domains shown)
VH: EVKLLESGGGLVQPGGSLRLSCAASGFTFSSYTMSWVRQAPGKGLEWVSYISHGGGDTYYPDSVKGRFTISRDNSKNTLYLQMNSLRAEDTAVYYCARHSGYERGYYYVMDYWGKGTTVTVSS
VL: DIQLTQSPDSLSVSLGERATINCKASESVDYYGFSFLNWFQQKPGQPPKLLIYAASNRQSGVPDRFSGSGSGTDFTLTISSLQAEDVAVYFCQQSKEVPWTFGQGTKLEIK
notes: Humanized; VH variant c, VK variant c; Constant regions not spelled out; also called mutant combination 9

- Kd (hPD-1 mIg fusion protein): 0.0989 nM
- koff (hPD-1 mIg fusion protein): 2.85e-05 s⁻¹
- kon (hPD-1 mIg fusion protein): 288000 M⁻¹ s⁻¹
B11: chimeric parental antibody (antibody, human IgG4 S228P, kappa, V domains shown)
VH: EVKLVESGGGLVQPGGSLKLSCAASGFTFSSYTMSWIRQTPEKRLEWVAYISHGGGDTYYPDTVKGRFTISRDNAKNTLYLQMSSLKSEDTAMYYCARHSGYERGYYYVMDYWGQGTSVTVSS
VL: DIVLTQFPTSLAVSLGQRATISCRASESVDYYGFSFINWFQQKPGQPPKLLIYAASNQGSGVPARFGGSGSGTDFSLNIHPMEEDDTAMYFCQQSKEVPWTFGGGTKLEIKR
notes: also called chimeric antibody
